Data: patent US20260109980A1 (TRUSTEES OF COLUMBIA UNIVERSITY IN THE CITY OF NEW YORK, published 2026)

B1: Vibrio cholerae Cas7 (other)
chain: not shown
notes: Six copies stand in Cascade; Cas7.1 is the monomer furthest from Cas8 and next to Cas6, and Cas7.2 is the next one; also called VchCas7; Cas7.1
B2: Vibrio cholerae Cas6 (enzyme)
chain: not shown
notes: Ribonuclease subunit of Cascade, seen within the TniQ-Cascade cryo-EM structure; also called VchCas6; Csy4

Legend:
Vibrio cholerae Cas6 = target: B2; experiment: cryo-EM structure
Vibrio cholerae Cas7 = target: B1; experiment: cryo-EM structure

Binder	binding result (Vibrio cholerae Cas6)	binding result (Vibrio cholerae Cas7)
B1	binds	–
B2	–	binds
